The nature of this data set: label from the status in PepcDB records.
Consider “MRWKGRRVSSNVEDRRGSGAKVGGISIIGLVVAFVAWKFFGVDPQQAYQATQQITAAQNPSSNAPQQLTADQKEASDFVGTILADTEDTWTPIFKQLGQTYVPPKLVLFNGIVQSGCGTAQSAMGPFYCPTDQKVYIDTSFFKDMREQMGISGEQNQTELSRQDQAGDFAQAYVVAHEVGHHIQNLLGISSQVQQAQAQGSRAQANQLSVRLELQADCFAGIWANHNQQRTQFLEAGDIEEAMDAAQKIGDDYLQKRSTGQVVPDSFTHGTSQQRMHWFEVGLKSGDLNQCDTF”, for which the protein production result is on record as “failed”.
On to “MRWVKAGELPMEAAYGATVSLPDRLIFIGGSNSSDRFSSVLSFSFDCMKDSGLICETLPPLPHAVDNMSATLLGDTLYVLGGNRNGIPSSSMFSLCLDNYSAGWTEVPFPGRPRVQPVCSSLLGKLYVFGGFTSGGDASVSTDGLCYHPESGQWQVVKAPLTTKGEPLTLTGGASVSYGDVLLICAGGVNRDIFEDAISARYQMVRESEYLLQPIEWYRFNDQLLAYNVRSGEWIRIGVPSPMLARAGSSLVVFGDILFYIGGELKPGVLEHHHHHH”, for which the protein production result is reported as “failed”.
In the case of “MRYGLRVEAITLWILGGLASLEAIPKEWNRELVIALAGPAVSILTGLACYAALFALPASAQVTLFVIGWLAVTNIFLAVFNMLPAFPMDGGRVLRALLARTRPYATATRIAARIGTGFAVLFAVVGVLSFSPLLLLLALFVYGAASSESRTVALAALLDGLSVDDVASPLDATIEANASVEDLVDRMFADRRTEFAVTRGGDVVGVVTVDDFRELSKAEREADTVADLMEADLPRFPAAMAAFDALVELDTARASAAFVDGPEGTRVVSRDDFSSAMEMRRLVDSPEPF”, the protein production result is on record as “failed”.
For “MRYGRTVPVTEAAELPPAPEQAREVFGDRFADAVRYAELLAEAGVQRGLIGPREVPRLWERHLLNCAVLSEVVPEGVTVCDVGSGAGLPGIPLALVREDLKITLLEPLLRRTNFLTEVVELLGLDHVTVIRGRAEEVMGKIPPVHVVTARAVAPLDRLATWGIPLLRPYGEMLALKGDTAEEELKSAATALSKLGAVETSVLHVGEGVVDPLSTVVRVEVGESPGGVRFAAKRAKAARTGRTRRRR” the value was “failed”.
With “MRYLFSLLFLLAYGSTVAQQPPMLPRDAAIEAKIEKLLEQMSLDEKIGQMVELEIGMITYRDPRYVVEKLARMSEQELADTLRRFGLDKQHNAAQLALTTPEDKQNKEKLMRLYWVSNDIQSKLPFRLDEAALDSVVGKYKVGSILNAPQTTAQTPAMWNQVVKTIQDVSIKHLGIPTVYGLDQMHGTTYSTGGTLFPGAINMAATFNRDLVYKMGEIVAYETRACNVPWIYGPCIDLGRMQAWSRQYESFGEDVFLSSEMGAAALRGMQGDNPNHIDAYHVAGCLKHYFAYGAPYNGLDRSPARLSYEELREKQFAPFLRGIREGALSIMTNSSNVNGVKGTVNREFITGWLKEGLGWDGMVVTDWGDIDGAVTSDRVVPTAKEAIRLAINAGVDMMMVPSQFTYNGLLKELVEEGGVSMERIDDAVRRILRLKHRVGLFEQPNTFAKDYPKFGSEEFAAYSRQAALESIVLLKNDSVDSQSRLLPIKQGTRLLVCGPNANSMRTLNGGWSYTWQGDGADREEFTGHFNTIYEALRNKFGSNHVTLVEGVSYDSKRWAMDHADNIGDAVAAAADNDYVIVCIGENTYAETRGNIADINLSTNQKNLVKALAATGKPIILVLNESRGRAISDIEPLAKAVVHTMLPGNYGGDALAELLAGNENFSGRLPYTYSAQPNAMVNYDYKASEVRETISGVYDYNAKTYEQWWFGAGMSYTTYTYSNLRADKNSFTKDDVLTFTVDVKNTGAMAGKETVMLYASDLYASLMPDNRRLRGFEKIVLAPDESKTVTFRIKASDLAFMGTGKKWTLEAGEFNIACGDQSVSIHCTEDYTWEEENIPDN”, the protein production entry is given as “failed”.
The entry for “MSADIEHIRQIMREADCLYTEAEVDAAIARVGAQINAELADRNPVVFCVMNGGLIFSGKLLTHLNFPLEASYLHATRYRNETTGGDLFWKAKPEVSFIDRDVLIIDDILDEGHTLGAIIDFCKHAGARAVHTAVLIDKDHDRKARPDLKADYVGLPCIDRYIFGFGMDYKGYWRNAAGIYAVKG” is “failed”; for “MSADTSSLDFHPLRADLYQELHSRPFQIIPPHARVTQIAVITTPEQRTRQFEHLQKLHRLLGEPWPEQEVSCYEQSFGKLRIRREVHMEFTSYTFINLADSDADPFAETGLSLLPDGWLAQLEGTVVGAFHVEVRSSSEDARSELAFMRKHFEGMRLVGSSPQEGAARVLGSFQLHSDNFGRFMVLNHHMSNSQLGRLIQRLMEIETYRLMSLLALPVAREITPSLNDMDQQLARITQSLADNESLDEQQILAELTNIAARIEAYRAHTTFRFSATRAYHRLVLTRLEELREDEVSGHLTITEFMTRRLTPAVKTCEAVNERLEDLSRRVDRASEMMRTRVELAIQSQNQQLLSSMDRRSRIQLMMQHTVEGFSVVAISYYLIGLLKLGLDALTGTGLTINEPLVTGLAIPVVMVLVFIGIRTIHHRFIRMARRQ” it is “failed”.
The entry for “MSAECWAALLHDPMTLDMDAVLSDFVRSTGAEPGLARDLLEGKNWDLTAALSDYEQLRQVHTANLPHVFNEGRG” is “not failed”.
For “MSAEEKNLIEILEEGHKVDVVKYIDYVSAPQAGAIATFSGTTRDMFEGKTVLELRYEAYVPMATRCLSSICTTARSTWDIHKIAVAHRLGPVPVGETSVLIAVSSVHRADGLDACKFLIDELKASVPIWKKEVYTNGEIWKENSEFMEKRLELAEKRDSIVKKTVVEEHRRRGCCGSKVRVEEDEEHKDITGDNKSSS” the value was “failed”.
Regarding “MSAFHIRAEQSRDISAIHDVTEAAFTGIEHSDGTEQDLVDKLRAAKALSLSLVAEADGEVIGHIAASEVLIGGGVQGWFGIGPVSVRPDKQQQGVGIALMGSALDQLRAEGAGGIVLLGDPGYYRRFGFEVVPGLVYPDAPAEFFMAVCLNAPAFPQGVVEYHSAFGG”, the protein production result is given as “failed”.
The entry for “MSAGLTGIRVAVIGGDDREIYMIPELQKLGAYIVGVGFEKAAPIQGVTLLSSPLEAVEKADVLLFPMYGTDERGDVKAKYSETPIVLNKELLKAVSPKVPLFIGWARPALKSAAEMLGIQIVETANLDQLAILNSIPSAEGAIQMAMEASPITIHGSESFVLGLGRCGWTLARTLKGMGAHVTGVARKPADLARALEMGLEAVHFADLDEKIGKAELIFNTVPHLILDKVMLEQVNHEAVIIDIASLPGGTDFEYAKAKGIKAMLAPGLPGKVAPKAAGKILAQVYPQLILRHLTTKNASLKF” is “failed”; for “MSAKDLPNGGPRLIDRYLLRLLLWPLAACLGVTVIALLLERILRLLDVLSQSSARFGYVAQLAANLVPHYLGLALPVAFFVALFIVIVKLSDGSEIDALLASGQSLERIAAPFVAVGVLLSVFSIIVFGYMQPYSRYAYRAVMHAAVNAGWNGRLAGGAFIDDKGSLLTADSADIAGQRLTRVFIRRLDAKGQEEIITAASADLKMDPDGKTITMDLRDGRRIAHDAYGTYRNLAFTSLTTQTPLSAAAVLLRDRGGDERELTMGELRREAKSPDPVVSKGTLLSEFYGRLARAAFLPFLPLLAFPLGLASKRGNRAPGLIMAGLLLLAFQHSLLLGQGMAKAGKADAFAAIWIPFTLFAALSVWLFVGSRTRPGDTPVSRLVRRINTLVTHALRLLPQPKKRQAA” it is “failed”; for “MSAPFHSALLDALNQRVVIGDGAMGTMLQAADLTLDDFLGLEGCNEILNDTRPDVLKDIHRAYFEAGADAVETNTFGCNLPNLADYDISDRIRELAEKGTRLARDVADEMGPGRDGMGRFVLGSMGPGTKLPTLGHAPFAILRDAYAEAAMGMIDGGADAILVETCQDLLQVKAAILGSQRAMETLGSRLPIITHVTVETTGTMLLGSEIGAALTALEPLGIDMIGLNCATGPAEMSEHLRHLSKYSSLPVSVMPNAGLPQLGPNGAEYPLTAEELAEALSGFVTEFGLGLVGGCCGTTPEHIRQVAEAVRLVEKAERNPVHESGTSSLYTAVPFQQDASILMIGERTNTNGSKAF” it is “failed”.
“MSAPHDSHTLINVLTLNAHMGFDLLKRRFILAALREAIREVCAEIVCLQEVLGEHALHARRHAQWPAVAHYEYLAEMLWPQFSYGRNAVYPHGHHGNAVLSKFPISSFANHDVSVPGHEPRGVLHAVLQVPGWSEELQVFCVHLGLHEAHRQQQIGLLCARVAALSADAPVVVAGDFNDWRARGHPLLTRCGLVEAVECMHGRVARSFPSRFPVLPLDRIYLRNLRVVQARVLSGLPWSRLSDHLPLLASIAP”: the protein production entry was “failed”.

The values are drawn from a protein production outcome set (Wang et al. 2014).
